{
  "source": "paper PMC7048932",
  "about": "“Examining sterically demanding lysine analogs for histone lysine methyltransferase catalysis” (Scientific Reports, 2020)",
  "key": {"[1]": {"biological_target": "G9a (human) (UniProt Q96KQ7)"}, "[2]": {"biological_target": "GLP (human) (UniProt Q9H9B1)", "sequence (Q9H9B1 whole entry)": "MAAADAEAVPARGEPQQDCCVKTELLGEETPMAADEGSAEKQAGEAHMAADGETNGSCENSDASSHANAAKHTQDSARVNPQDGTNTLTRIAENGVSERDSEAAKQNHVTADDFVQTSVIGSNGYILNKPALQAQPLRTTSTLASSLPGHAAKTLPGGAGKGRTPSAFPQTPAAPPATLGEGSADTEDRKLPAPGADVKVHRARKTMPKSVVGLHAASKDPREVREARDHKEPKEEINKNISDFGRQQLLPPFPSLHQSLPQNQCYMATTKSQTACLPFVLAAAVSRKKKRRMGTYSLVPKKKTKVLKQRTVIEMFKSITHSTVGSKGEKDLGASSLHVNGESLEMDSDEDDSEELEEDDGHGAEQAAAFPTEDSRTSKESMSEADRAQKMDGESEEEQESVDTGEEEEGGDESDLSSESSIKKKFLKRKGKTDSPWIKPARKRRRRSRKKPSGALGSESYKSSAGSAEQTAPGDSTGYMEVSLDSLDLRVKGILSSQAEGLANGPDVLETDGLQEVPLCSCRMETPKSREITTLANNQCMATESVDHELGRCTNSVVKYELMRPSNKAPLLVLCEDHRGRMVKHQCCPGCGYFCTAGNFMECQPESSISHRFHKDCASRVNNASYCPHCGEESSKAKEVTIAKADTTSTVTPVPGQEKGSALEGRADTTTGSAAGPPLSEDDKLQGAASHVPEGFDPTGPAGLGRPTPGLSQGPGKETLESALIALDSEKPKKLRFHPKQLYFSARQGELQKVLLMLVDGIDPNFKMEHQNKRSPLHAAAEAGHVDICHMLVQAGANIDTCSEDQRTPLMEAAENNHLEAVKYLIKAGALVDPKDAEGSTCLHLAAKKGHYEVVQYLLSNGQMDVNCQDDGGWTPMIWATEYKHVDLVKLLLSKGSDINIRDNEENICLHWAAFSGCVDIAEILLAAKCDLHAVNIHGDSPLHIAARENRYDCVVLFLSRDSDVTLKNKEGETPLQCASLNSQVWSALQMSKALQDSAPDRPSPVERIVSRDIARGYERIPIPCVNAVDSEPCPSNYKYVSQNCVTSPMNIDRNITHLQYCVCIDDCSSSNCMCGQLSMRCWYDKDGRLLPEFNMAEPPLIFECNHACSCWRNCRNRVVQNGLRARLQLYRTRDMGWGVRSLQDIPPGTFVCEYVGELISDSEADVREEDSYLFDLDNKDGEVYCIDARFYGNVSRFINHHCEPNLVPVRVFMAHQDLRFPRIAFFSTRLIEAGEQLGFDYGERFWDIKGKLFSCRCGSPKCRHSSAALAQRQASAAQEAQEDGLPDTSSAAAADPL"}, "[3]": {"biological_target": "T1, SETD7 (human) (UniProt Q8WTS6)", "T1 sequence": "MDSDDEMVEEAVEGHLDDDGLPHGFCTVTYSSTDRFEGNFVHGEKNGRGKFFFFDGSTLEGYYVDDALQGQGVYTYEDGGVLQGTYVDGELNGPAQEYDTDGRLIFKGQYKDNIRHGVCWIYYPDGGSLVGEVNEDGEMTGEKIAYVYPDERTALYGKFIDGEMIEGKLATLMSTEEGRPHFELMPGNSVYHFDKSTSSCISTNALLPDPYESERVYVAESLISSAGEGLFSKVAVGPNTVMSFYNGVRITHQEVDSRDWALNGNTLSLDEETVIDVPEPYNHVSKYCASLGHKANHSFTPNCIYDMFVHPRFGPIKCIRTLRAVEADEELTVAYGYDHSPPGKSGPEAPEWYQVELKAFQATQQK"}, "[4]": {"substrate": "C[C@H](N)C(=O)N[C@@H](CCCNC(=N)N)C(=O)N[C@H](C(=O)N[C@@H](CCCCN)C(=O)N[C@@H](CCC(N)=O)C(=O)N[C@H](C(=O)N[C@@H](C)C(=O)N[C@@H](CCCNC(=N)N)C(=O)N[C@@H](CCC1CC1N)C(=O)N[C@@H](CO)C(=O)N[C@H](C(=O)NCC(=O)NCC(=O)N[C@@H](CCCCN)C(=O)N[C@@H](C)C(=O)O)[C@@H](C)O)[C@@H](C)O)[C@@H](C)O", "experiment": "Enzyme kinetics of G9a-catalyzed methylation (MALDI-TOF MS)", "format": "biochemical, human", "conditions": "other: G9a-catalyzed methylation, MALDI-TOF MS assay; pH 8.0; 37.0 °C", "experimental": "To establish the substrate efficiency of lysine- and KCP-containing histone peptides, we carried out enzyme kinetics analysis, employing the MALDI-TOF MS assays[22].\nMALDI-MS methyltransferases activity experiments were performed using a Bruker instrument in the reflectron positive mode. For regular methyltransferase standard conditions experiment which carried out in 30 µL total volume, the mixture contains peptide (100 µM), SAM (200 µM), SETD8 or SETD7 (2 µM), in assay buffer 50 mM Tris at optimal pH 8.0. In case of G9a and GLP, similar conditions were used, except (500 µM) of SAM was added to the reaction mixture. Samples were incubated in an Eppendorf vial 1.5 mL using thermomixer for 1 h at 37 °C. A 5 µL aliquot of the solution was mixed with 5 µL of MeOH, after which 5 µL of this mixture was mixed with 5 µL of α-cyano-4-hydroxycinamic acid matrix (CHCA, 5 mg/mL in 125:125 µL acetonitrile/water). The spots were placed on a stainless steel MALDI plate (MS 96 target ground steel BC of Bruker, Germany). The mass corresponding to one monomethylation observed as +14 Da, dimethylation observed as +28 Da and trimethylation observed as +42 Da. The enzymatic activity was determined by taking the peak areas of each methylation state, including all isotopes and adducts, and was annotated using FlexAnalysis software (Bruker Daltonics, Germany). […] Methylated peptide substrates were repeated five times and the unmethylated substrates were triplicated."}},
  "data": [
    {"binder": "ARTKQTARYSTGGKA", "note": "[H3Y9 histone peptide]", "values": [
      {"measurement": "IC50 of inhibition of G9a (100 nM) methylation of a 21-mer H3 peptide (residues 1–21, 5 µM) with SAM (20 µM), MALDI-TOF MS", "setting": "[1]", "result": "> 100", "unit": "µM"},
      {"measurement": "IC50 of inhibition of GLP (100 nM) methylation of a 21-mer H3 peptide (residues 1–21, 5 µM) with SAM (20 µM), MALDI-TOF MS", "setting": "[2]", "result": "> 100", "unit": "µM"}
    ]},
    {"binder": "ARTYQTARKSTGGKA", "note": "[H3K4 analog histone peptide with tyrosine (Y) at position 4]", "values": [
      {"measurement": "IC50 of inhibition of SETD7 (100 nM) methylation of a 21-mer H3 peptide (residues 1–21, 5 µM) with SAM (20 µM), MALDI-TOF MS", "setting": "[3]", "result": "> 100", "unit": "µM"}
    ]},
    {"binder": "G9a (Homo sapiens) (protein, His6 (N); made in house; host or cells: E. coli BL21 (DE3)pLysS-rosetta) MAAAAGAAAAAAAEGEAPAEMGALLLEKETRGATERVHGSLGDTPRSEETLPKATPDSLEPAGPSSPASVTVTVGDEGADTPVGATPLIGDESENLEGDGDLRGGRILLGHATKSFPSSPSKGGSCPSRAKMSMTGAGKSPPSVQSLAMRLLSMPGAQGAAAAGSEPPPATTSPEGQPKVHRARKTMSKPGNGQPPVPEKRPPEIQHFRMSDDVHSLGKVTSDLAKRRKLNSGGGLSEELGSARRSGEVTLTKGDPGSLEEWETVVGDDFSLYYDSYSVDERVDSDSKSEVEALTEQLSEEEEEEEEEEEEEEEEEEEEEEEEDEESGNQSDRSGSSGRRKAKKKWRKDSPWVKPSRKRRKREPPRAKEPRGVNGVGSSGPSEYMEVPLGSLELPSEGTLSPNHAGVSNDTSSLETERGFEELPLCSCRMEAPKIDRISERAGHKCMATESVDGELSGCNAAILKRETMRPSSRVALMVLCETHRARMVKHHCCPGCGYFCTAGTFLECHPDFRVAHRFHKACVSQLNGMVFCPHCGEDASEAQEVTIPRGDGVTPPAGTAAPAPPPLSQDVPGRADTSQPSARMRGHGEPRRPPCDPLADTIDSSGPSLTLPNGGCLSAVGLPLGPGREALEKALVIQESERRKKLRFHPRQLYLSVKQGELQKVILMLLDNLDPNFQSDQQSKRTPLHAAAQKGSVEICHVLLQAGANINAVDKQQRTPLMEAVVNNHLEVARYMVQRGGCVYSKEEDGSTCLHHAAKIGNLEMVSLLLSTGQVDVNAQDSGGWTPIIWAAEHKHIEVIRMLLTRGADVTLTDNEENICLHWASFTGSAAIAEVLLNARCDLHAVNYHGDTPLHIAARESYHDCVLLFLSRGANPELRNKEGDTAWDLTPERSDVWFALQLNRKLRLGVGNRAIRTEKIICRDVARGYENVPIPCVNGVDGEPCPEDYKYISENCETSTMNIDRNITHLQHCTCVDDCSSSNCLCGQLSIRCWYDKDGRLLQEFNKIEPPLIFECNQACSCWRNCKNRVVQSGIKVRLQLYRTAKMGWGVRALQTIPQGTFICEYVGELISDAEADVREDDSYLFDLDNKDGEVYCIDARYYGNISRFINHLCDPNIIPVRVFMLHQDLRFPRIAFFSSRDIRTGEELGFDYGDRFWDIKSKYFTCQCGSEKCKHSAEAIALEQSRLARLDPHPELLPELGSLPPVNT", "values": [
      {"measurement": "Km", "setting": "[4]", "result": "22.6 ± 5.0", "unit": "µM"},
      {"measurement": "kcat", "setting": "[4]", "result": "0.0463 ± 0.0005", "unit": "s⁻¹"},
      {"measurement": "kcat/Km", "setting": "[4]", "result": 2070, "unit": "M⁻¹ s⁻¹"}
    ]}
  ]
}
